Results from article PMC9597168, “ATP-dependent polymerization dynamics of bacterial actin proteins involved in Spiroplasma swimming” (Open Biology, 2022).
Positions count from the first letter of the chain named. Names and notes keep the numbering of the source.

How the values were obtained:
[1] = biological target: SpeMreB5 D162S (Spiroplasma eriocheiris); experiment: sedimentation assay (ultracentrifugation of polymers, SDS-PAGE of pellet and supernatant); buffer S (20 mM Tris-HCl pH 8.0, 1 M NaCl, 200 mM L-arginine-HCl pH 8.0, 5 mM DTT, 2 mM MgCl2, 2 mM ATP), 1 h, 436 000 x g for 120 min at 23°C; bulk critical concentration = x-intercept of the linear fit of pellet against total concentration
[2] = biological target: SpeMreB5 T160A (Spiroplasma eriocheiris); experiment: as above
[3] = biological target: Spiroplasma eriocheiris MreB3 wild-type (Spiroplasma eriocheiris); experiment: as above
SpeMreB5 = biological target: T1, SpeMreB5 (Spiroplasma eriocheiris, UniProt A0A0H3XIQ3); experiment: Pi release assay (MESG coupled, A360); assay type: biochemical; conditions: 2 mM ATP, 2 mM MgCl2, pH 7.5, 100 mM KCl, about 25 °C
T1 construct: gene mreB5; full length, 6xHis fusion, E. coli expressed, purified as monomer
T1 sequence (A0A0H3XIQ3 1-350): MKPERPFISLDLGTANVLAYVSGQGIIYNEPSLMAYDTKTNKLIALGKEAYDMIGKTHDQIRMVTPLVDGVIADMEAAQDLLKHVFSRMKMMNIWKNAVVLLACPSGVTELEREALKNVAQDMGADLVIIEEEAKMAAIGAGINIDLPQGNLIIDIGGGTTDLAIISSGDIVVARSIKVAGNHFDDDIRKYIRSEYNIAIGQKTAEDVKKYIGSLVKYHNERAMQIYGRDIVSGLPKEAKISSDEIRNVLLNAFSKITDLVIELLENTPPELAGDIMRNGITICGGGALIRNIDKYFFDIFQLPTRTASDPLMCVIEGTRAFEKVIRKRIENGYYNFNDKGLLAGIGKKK

[4] = biological target: SpeMreB5 T160K (Spiroplasma eriocheiris); experiment: sedimentation assay (ultracentrifugation of polymers, SDS-PAGE of pellet and supernatant); buffer S (20 mM Tris-HCl pH 8.0, 1 M NaCl, 200 mM L-arginine-HCl pH 8.0, 5 mM DTT, 2 mM MgCl2, 2 mM ATP), 1 h, 436 000 x g for 120 min at 23°C; bulk critical concentration = x-intercept of the linear fit of pellet against total concentration
[5] = biological target: Spiroplasma eriocheiris MreB5 wild-type (Spiroplasma eriocheiris); experiment: as above
[6] = biological target: Spiroplasma eriocheiris MreB5 wild-type (Spiroplasma eriocheiris); experiment: sedimentation assay (ultracentrifugation of polymers, SDS-PAGE of pellet and supernatant); buffer S with Mg-AMPPNP instead of Mg-ATP; bulk critical concentration = x-intercept of the linear fit
[7] = biological target: Spiroplasma eriocheiris MreB5 wild-type (Spiroplasma eriocheiris); experiment: sedimentation assay (ultracentrifugation of polymers, SDS-PAGE of pellet and supernatant); buffer S with Mg-ADP instead of Mg-ATP; bulk critical concentration = x-intercept of the linear fit
[8] = biological target: the molecule itself; experiment: negative-staining electron microscopy; polymerized 3 h at room temperature in standard buffer (20 mM Tris-HCl pH 7.5, 100 mM KCl, 5 mM DTT) with 2 mM MgCl2 and 2 mM ATP; 10 µM SpeMreB3, 5 µM SpeMreB5, diluted to 3 µM before the grid
[9] = biological target: the molecule itself; experiment: sedimentation assay (ultracentrifugation of polymers, SDS-PAGE of pellet and supernatant); buffer S (20 mM Tris-HCl pH 8.0, 1 M NaCl, 200 mM L-arginine-HCl pH 8.0, 5 mM DTT, 2 mM MgCl2, 2 mM ATP), 1 h, 436 000 x g for 120 min at 23°C; bulk critical concentration = x-intercept of the linear fit of pellet against total concentration

Molecule: SpeMreB5 D162S (from UniProt A0A0H3XIQ3 1-350) (natural protein)
- critical concentration (CC) [1]: 0.07 µM

Molecule: SpeMreB5 T160A (from UniProt A0A0H3XIQ3 1-350) (natural protein)
- critical concentration (CC) [2]: 0.15 µM

Molecule: Spiroplasma eriocheiris MreB3 wild-type (from UniProt A0A0H3XJK5 1-352) (natural protein)
- critical concentration (CC) [3]: 2.8 µM

Molecule: Nc1ncnc2c1ncn2[C@@H]1O[C@H](COP(=O)(O)OP(=O)(O)OP(=O)(O)O)[C@@H](O)[C@H]1O [ATP]
- Pi release assay (MESG coupled, A360) (SpeMreB5): SpeMreB5 hydrolysed ATP and released Pi over time

Molecule: SpeMreB5 T160K (from UniProt A0A0H3XIQ3 1-350) (natural protein)
- critical concentration (CC) [4]: 0 µM

Molecule: Spiroplasma eriocheiris MreB5 wild-type (from UniProt A0A0H3XIQ3 1-350) (natural protein)
- critical concentration (CC) [5]: 0.14 µM
- critical concentration (CC) [6]: 0.29 µM
- critical concentration (CC) [7]: 0.39 µM

B1: SpeMreB3 S176D (natural protein)
chain: MTITDVLKNTFNISPKPPRKFIAIDLGTTNSIAYIGGRGIIYNEASVMAYETGTKKLVALGEDARKLIGKTHDKIEIYTPLRNGAITDLRIAEEFIQHIGNRAKVQDVWKGSIVLIACPKSVTELERRAMVEMCKHLGADLVQVEEDTLMAALGAGANIFAPKGTFILDIGGGKTDAGIISAGGIVVSKSIKIAGNYIDEEILKYIRAKHTISIGVVTAEQIKKQIGSLYKGKETKKMVIFGRDVVTGMPKETEILDSEIRKLLISIFSSITQLVTDILESTPAELAGDAVMNGLLVSGGCAQISGLKEFLESYFQIPVKIAKNPQTAVIDGCIAYEKEIRDRLIEENKKNK
- binding result [8]: binds

B2: SpeMreB3 D147E (natural protein)
chain: B1 chain with D147E, D176S
- critical concentration (CC) [9]: 1.26 µM

B3: SpeMreB3 K174T (natural protein)
chain: B1 chain with K174T, D176S
- critical concentration (CC) [9]: 2.2 µM

B4: SpeMreB3 K174T/S176D (natural protein)
chain: B1 chain with K174T
- critical concentration (CC) [9]: 2.15 µM
